Among the data in patent US5162203A, “Methods of measuring isozymes and isozyme classes of alcohol dehydrogenase” (President and Fellows of Harvard College, priority 1989, dated 1992) are kcat/Km, Km and kcat values, retold here.

Holding throughout (assay type): biochemical, human
Substrate in series [1]: COc1ccc2cc(C=O)ccc2c1
The series is described as follows: Kinetics of enzymatic reduction of methoxynaphthaldehydes by Class III ADH. Particulars: other: pH 7.0, 50 μM NADH, 25.0 °C.

Substrate in series [2]: COc1ccc2cc(C=O)ccc2c1
The series is described as follows: Kinetics of enzymatic reduction of methoxynaphthaldehydes by β1γ1 ADH. Particulars: other: pH 7.0, 50 μM NADH, fluorometric, 25.0 °C.

Substrate in series [3]: COc1ccc(C=O)c2ccccc12
The description is as above. The following applies: other: pH 7.0, 50 μM NADH, fluorometric, 25.0 °C.

Substrate in series [4]: COc1ccc2cc(C=O)ccc2c1
The series is described as follows: Kinetics of enzymatic reduction of methoxynaphthaldehydes by αβ1 ADH. The following applies: other: pH 7.0, 50 μM NADH, spectrophotometric, 25.0 °C. The method, then:
(§1) Standard assays for ethanol oxidation activity (Dalziel, 1957, Acta Chem Scand 11:1706-23) were carried out on a Cary 219 spectrophotometer interfaced with an Apple IIe microcomputer, using software provided by Varian Associates. The reaction mixture contained 2.5 mM NAD^+ in 0.1M glycine-NaOH buffer. pH 10.0, and 33 mM or 0.2M ethanol for Class I and Class II ADH, respectively.
(§2) Aldehyde reduction was monitored by following the decrease of absorption at 340 nm in 40 mM Mes buffer, pH 7.1. in the presence of saturating NADH, 50 μM for Class I and 100 μM for Class II. […] Initial reaction rates were measured and kinetic parameters determined by conventional procedures as described by Segel, 1975, Enzyme Kinetics, pp. 591-597, Wiley, N.Y.
(§3) All reaction mixtures (3 ml total volume) were prepared directly in 1 cm pathlength, 4 ml fluorometric cuvettes by adding 150 μl of the 300 μM substrate solution (e.g substrate IA or IIA) 100 μl of the 1 mM NADH solution (prepared as in part 5 above) and 2.69 ml of assay buffer (0.1M phosphate, pH 7.6). After thermal equilibration (25° C.) for 5 minutes, 60 μl of isozyme sample (either serum or purified ADH isozymes) was added to the cuvette.
(§4) The linear increase of fluorescence was then recorded for 1-10 minutes, until 0.03-1 μM of substrate was consumed. Larger substrate consumption was not found to be desirable (described in subpart (c) below). After this period the instrument sensitivity setting was reduced 10-30 fold, the signal compensated once again by zero suppression (see part 6 above), and 60 μl of 200-400 μM product (e.g., product IB or IIB) was added to provide an internal standard. The added product fluorescence intensity was then measured Fluorescence measurements were optimized for samples with low activity (<1 nM/minute). […] Rates measured in the presence of the 0.2 mM ADH inhibitors. […]
(§5) The rates of aldehyde reduction, determined as initial velocities (V) and expressed in units of nM/minute, were calculated according to: [formula] where the quantity in parentheses is the slope of the linear fluorescence increase calculated from the quantities Ft and FO, the fluorescence at time t and at the beginning of the reaction, respectively. Cst is the concentration of the product used as a standard added to the cuvette after the initial rate had been measured and Fst is the fluorescence intensity of the added product
(§6) Additionally the reaction rates for these isozymes were compared to those measured by the standard assay for ethanol oxidation (see part 7 above) at pH 10.0 the optimum for oxidation of ethanol by ADH. The rate of IA reduction for all Class I isozymes except the β1 β1 form is 1.5- to 4-fold faster than that of ethanol oxidation as measured by the conventional ethanol oxidation assay. […]

Substrate in series [5]: COc1ccc(C=O)c2ccccc12
The series is described as above. The following applies: other: pH 7.0, 50 μM NADH, spectrophotometric, 25.0 °C. The method, then:
as §1, §2, §3, §4, §5, §6

Substrate in series [6]: COc1ccc2cc(C=O)ccc2c1
Description: Kinetics of enzymatic reduction of methoxynaphthaldehydes by αγ1 ADH. Particulars: other: pH 7.0, 50 μM NADH, fluorometric, 25.0 °C.

Substrate in series [7]: COc1ccc(C=O)c2ccccc12
The series is described as above. Particulars: other: pH 7.0, 50 μM NADH, fluorometric, 25.0 °C.

Substrate in series [8]: COc1ccc2cc(C=O)ccc2c1
The series is described as follows: Kinetics of enzymatic reduction of methoxynaphthaldehydes by γ1γ1 ADH. Particulars: other: pH 7.0, 50 μM NADH, fluorometric, 25.0 °C.

Substrate in series [9]: COc1ccc(C=O)c2ccccc12
Described as above. The following applies: other: pH 7.0, 50 μM NADH, fluorometric, 25.0 °C.

Substrate in series [10]: COc1ccc2cc(C=O)ccc2c1
Description: Kinetics of enzymatic reduction of methoxynaphthaldehydes by Class II ADH. The following applies: other: pH 7.0, 50 μM NADH; spectrophotometric; pH 7.0; 25.0 °C.

Substrate in series [11]: COc1ccc(C=O)c2ccccc12
The series is described as above. Particulars: 25.0 °C.

The mark [12] stands for this setting: other: pH 7.0, 50 μM NADH, spectrophotometric, pH 7.0.

B1: Class III (.chi.) ADH (Homo sapiens) (protein)
chain: MANEVIKCKAAVAWEAGKPLSIEEIEVAPPKAHEVRIKIIATAVCHTDAYTLSGADPEGCFPVILGHEGAGIVESVGEGVTKLKAGDTVIPLYIPQCGECKFCLNPKTNLCQKIRVTQGKGLMPDGTSRFTCKGKTILHYMGTSTFSEYTVVADISVAKIDPLAPLDKVCLLGCGISTGYGAAVNTAKLEPGSVCAVFGLGGVGLAVIMGCKVAGASRIIGVDINKDKFARAKEFGATECINPQDFSKPIQEVLIEMTDGGVDYSFECIGNVKVMRAALEACHKGWGVSVVVGVAASGEEIATRPFQLVTGRTWKGTAFGGWKSVESVPKLVSEYMSKKIKVDEFVTHNLSFDEINKAFELMHSGKSIRTVVKI
Take B1: the kcat/Km in [1] stood at 830 M⁻¹ s⁻¹.

B2: β1 γ1 ADH (Class I) (Homo sapiens) (protein)
chain 1: MSTAGKVIKCKAAVLWEVKKPFSIEDVEVAPPKAYEVRIKMVAVGICHTDDHVVSGNLVTPLPVILGHEAAGIVESVGEGVTTVKPGDKVIPLFTPQCGKCRVCKNPESNYCLKNDLGNPRGTLQDGTRRFTCRGKPIHHFLGTSTFSQYTVVDENAVAKIDAASPLEKVCLIGCGFSTGYGSAVNVAKVTPGSTCAVFGLGGVGLSAVMGCKAAGAARIIAVDINKDKFAKAKELGATECINPQDYKKPIQEVLKEMTDGGVDFSFEVIGRLDTMMASLLCCHEACGTSVIVGVPPASQNLSINPMLLLTGRTWKGAVYGGFKSKEGIPKLVADFMAKKFSLDALITHVLPFEKINEGFDLLHSGKSIRTVLTF
chain 2: MSTAGKVIKCKAAVLWELKKPFSIEEVEVAPPKAHEVRIKMVAAGICRSDEHVVSGNLVTPLPVILGHEAAGIVESVGEGVTTVKPGDKVIPLFTPQCGKCRICKNPESNYCLKNDLGNPRGTLQDGTRRFTCSGKPIHHFVGVSTFSQYTVVDENAVAKIDAASPLEKVCLIGCGFSTGYGSAVKVAKVTPGSTCAVFGLGGVGLSVVMGCKAAGAARIIAVDINKDKFAKAKELGATECINPQDYKKPIQEVLKEMTDGGVDFSFEVIGRLDTMMASLLCCHEACGTSVIVGVPPDSQNLSINPMLLLTGRTWKGAIFGGFKSKESVPKLVADFMAKKFSLDALITNILPFEKINEGFDLLRSGKSIRTVLTF
notes: beta1 (ADH1B*1) and gamma1 (ADH1C*1) alleles
Regarding B2, in [2], the Km came out at 0.40 µM and the turnover number (kcat) amounted to 2.83 s⁻¹. In addition, in [3], the Km came out at 0.60 µM and the turnover number (kcat) worked out at 4.42 s⁻¹.

B3: αβ1 ADH (Class I) (Homo sapiens) (protein)
chain 1: STAGKVIKCKAAVLWELKKPFSIEEVEVAPPKAHEVRIKMVAVGICGTDDHVVSGTMVTPLPVILGHEAAGIVESVGEGVTTVKPGDKVIPLAIPQCGKCRICKNPESNYCLKNDVSNPQGTLQDGTSRFTCRRKPIHHFLGISTFSQYTVVDENAVAKIDAASPLEKVCLIGCGFSTGYGSAVNVAKVTPGSTCAVFGLGGVGLSAIMGCKAAGAARIIAVDINKDKFAKAKELGATECINPQDYKKPIQEVLKEMTDGGVDFSFEVIGRLDTMMASLLCCHEACGTSVIVGVPPDSQNLSMNPMLLLTGRTWKGAILGGFKSKECVPKLVADFMAKKFSLDALITHVLPFEKINEGFDLLHSGKSIRTILMF
chain 2: STAGKVIKCKAAVLWEVKKPFSIEDVEVAPPKAYEVRIKMVAVGICHTDDHVVSGNLVTPLPVILGHEAAGIVESVGEGVTTVKPGDKVIPLFTPQCGKCRVCKNPESNYCLKNDLGNPRGTLQDGTRRFTCRGKPIHHFLGTSTFSQYTVVDENAVAKIDAASPLEKVCLIGCGFSTGYGSAVNVAKVTPGSTCAVFGLGGVGLSAVMGCKAAGAARIIAVDINKDKFAKAKELGATECINPQDYKKPIQEVLKEMTDGGVDFSFEVIGRLDTMMASLLCCHEACGTSVIVGVPPASQNLSINPMLLLTGRTWKGAVYGGFKSKEGIPKLVADFMAKKFSLDALITHVLPFEKINEGFDLLHSGKSIRTVLTF
notes: beta1 allele (ADH1B*1, Arg47 and Arg369 in mature count)
As to B3, in series [4], the Michaelis constant (Km) came out at 11.5 µM and the kcat stood at 2.67 s⁻¹. In [5], the Km came to 8.5 µM and the turnover number (kcat) came out at 7.5 s⁻¹.

B4: αγ1 ADH (Class I) (Homo sapiens) (protein)
chain 1: STAGKVIKCKAAVLWELKKPFSIEEVEVAPPKAHEVRIKMVAVGICGTDDHVVSGTMVTPLPVILGHEAAGIVESVGEGVTTVKPGDKVIPLAIPQCGKCRICKNPESNYCLKNDVSNPQGTLQDGTSRFTCRRKPIHHFLGISTFSQYTVVDENAVAKIDAASPLEKVCLIGCGFSTGYGSAVNVAKVTPGSTCAVFGLGGVGLSAIMGCKAAGAARIIAVDINKDKFAKAKELGATECINPQDYKKPIQEVLKEMTDGGVDFSFEVIGRLDTMMASLLCCHEACGTSVIVGVPPDSQNLSMNPMLLLTGRTWKGAILGGFKSKECVPKLVADFMAKKFSLDALITHVLPFEKINEGFDLLHSGKSIRTILMF
chain 2: STAGKVIKCKAAVLWELKKPFSIEEVEVAPPKAHEVRIKMVAAGICRSDEHVVSGNLVTPLPVILGHEAAGIVESVGEGVTTVKPGDKVIPLFTPQCGKCRICKNPESNYCLKNDLGNPRGTLQDGTRRFTCSGKPIHHFVGVSTFSQYTVVDENAVAKIDAASPLEKVCLIGCGFSTGYGSAVKVAKVTPGSTCAVFGLGGVGLSVVMGCKAAGAARIIAVDINKDKFAKAKELGATECINPQDYKKPIQEVLKEMTDGGVDFSFEVIGRLDTMMASLLCCHEACGTSVIVGVPPDSQNLSINPMLLLTGRTWKGAIFGGFKSKESVPKLVADFMAKKFSLDALITNILPFEKINEGFDLLRSGKSIRTVLTF
notes: gamma1 allele (ADH1C*1, Arg271 and Ile349 in mature count)
For B4, in series [6], the Km was 0.58 µM and the turnover number (kcat) worked out at 2.5 s⁻¹. Besides, in [7], the Km came out at 2.8 µM and the catalytic constant (kcat) is 8.33 s⁻¹.

B5: γ1 γ1 ADH (Class I) (Homo sapiens) (protein)
chain: STAGKVIKCKAAVLWELKKPFSIEEVEVAPPKAHEVRIKMVAAGICRSDEHVVSGNLVTPLPVILGHEAAGIVESVGEGVTTVKPGDKVIPLFTPQCGKCRICKNPESNYCLKNDLGNPRGTLQDGTRRFTCSGKPIHHFVGVSTFSQYTVVDENAVAKIDAASPLEKVCLIGCGFSTGYGSAVKVAKVTPGSTCAVFGLGGVGLSVVMGCKAAGAARIIAVDINKDKFAKAKELGATECINPQDYKKPIQEVLKEMTDGGVDFSFEVIGRLDTMMASLLCCHEACGTSVIVGVPPDSQNLSINPMLLLTGRTWKGAIFGGFKSKESVPKLVADFMAKKFSLDALITNILPFEKINEGFDLLRSGKSIRTVLTF
notes: as for B4
B5: in series [8], the Km was determined as 0.35 µM and the kcat stood at 1.83 s⁻¹. In series [9], the Km worked out at 2.30 µM and the kcat was 10.2 s⁻¹.

B6: Class II (π) ADH (Homo sapiens) (protein)
chain: MGTKGKVIKCKAAIAWEAGKPLCIEEVEVAPPKAHEVRIQIIATSLCHTDATVIDSKFEGLAFPVIVGHEAAGIVESIGPGVTNVKPGDKVIPLYAPLCRKCKFCLSPLTNLCGKISNLKSPASDQQLMEDKTSRFTCKGKPVYHFFGTSTFSQYTVVSDINLAKIDDDANLERVCLLGCGFSTGYGAAINNAKVTPGSTCAVFGLGGVGLSAVMGCKAAGASRIIGIDINSEKFVKAKALGATDCLNPRDLHKPIQEVIIELTKGGVDFALDCAGGSETMKAALDCTTAGWGSCTFIGVAAGSKGLTIFPEELIIGRTINGTFFGGWKSVDSIPKLVTDYKNKKFNLDALVTHTLPFDKISEAFDLMNQGKSVRTILIF
Take B6: the Km in series [10] is 2.6 µM; in series [11] (setting [12]), 20.0 µM. In addition, the turnover number (kcat) in [10] came out at 25 s⁻¹; in [11] (other: Class II), 0.667 s⁻¹; in series [11] (setting [12]), 0.833 s⁻¹.

As a reminder, the kcat/Km is the turnover number divided by the Michaelis constant. Broadly, the Km is the substrate concentration at which the rate is half of its maximum. As usually defined, the kcat is the maximal rate divided by the concentration of active sites.
